In patent US20200079833A1 (AstraZeneca / MedImmune, published 2020):
Starred links: 1 amine or outer side, 2 acyl side, 3 side chain; linkers in the order of their positions; H or OH if unused. Non-standard residues stand in square brackets, D forms with d. Groups on a side chain read outwards from the residue. Primed or numbered codes have the meaning given here. No end group written: not given here. *: point of attachment. γGlu = O=C(O)[C@H](CCC(=O)[*:2])N[*:1]; Stearoyl = CCCCCCCCCCCCCCCCCC(=O)*; Palmitoyl = CCCCCCCCCCCCCCCC(=O)*; αMeF = C[C@](N)(Cc1ccccc1)C(=O)O; αMeK = C[C@](N)(CCCCN)C(=O)O; Lauroyl = CCCCCCCCCCCC(=O)*; αMeS = C[C@](N)(CO)C(=O)O; PEG2′ = not defined here; Aib = CC(C)(N)C(=O)O

T1: glucose-dependent insulinotropic peptide (gastric inhibitory polypeptide) receptor (GIPR), primary cAMP assay (human, UniProt P48546 22-466)
T1 sequence (looked up): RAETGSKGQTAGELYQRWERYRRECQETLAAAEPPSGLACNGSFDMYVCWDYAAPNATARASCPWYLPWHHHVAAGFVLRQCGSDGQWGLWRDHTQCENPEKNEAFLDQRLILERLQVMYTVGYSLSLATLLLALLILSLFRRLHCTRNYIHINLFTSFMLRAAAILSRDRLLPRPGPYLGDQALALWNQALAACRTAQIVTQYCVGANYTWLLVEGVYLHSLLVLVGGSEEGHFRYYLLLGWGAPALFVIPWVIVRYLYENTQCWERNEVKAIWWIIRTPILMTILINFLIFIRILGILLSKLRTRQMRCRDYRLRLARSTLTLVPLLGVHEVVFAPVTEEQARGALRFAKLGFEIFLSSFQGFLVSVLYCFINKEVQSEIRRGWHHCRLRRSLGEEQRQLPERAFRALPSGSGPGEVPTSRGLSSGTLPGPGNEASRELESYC

T2: glucose-dependent insulinotropic peptide (gastric inhibitory polypeptide) receptor (GIPR) (human, UniProt P48546 22-466)
T2 sequence (looked up): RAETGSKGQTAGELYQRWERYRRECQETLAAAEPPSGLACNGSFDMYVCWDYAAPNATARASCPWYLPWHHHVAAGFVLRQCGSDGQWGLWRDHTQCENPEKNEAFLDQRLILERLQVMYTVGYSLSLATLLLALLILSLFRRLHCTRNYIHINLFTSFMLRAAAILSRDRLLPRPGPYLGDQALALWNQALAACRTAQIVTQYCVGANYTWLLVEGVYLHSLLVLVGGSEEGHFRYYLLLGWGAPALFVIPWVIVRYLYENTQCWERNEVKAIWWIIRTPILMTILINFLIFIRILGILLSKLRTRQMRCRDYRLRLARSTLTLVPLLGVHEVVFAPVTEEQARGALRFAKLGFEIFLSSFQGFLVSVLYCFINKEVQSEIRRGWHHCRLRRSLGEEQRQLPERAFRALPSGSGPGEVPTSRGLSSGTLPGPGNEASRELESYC


Experiments:
Assay in all cases: cell-based or functional assay
[1] = target: glucagon receptor (GCGR), primary cAMP assay (human, UniProt P47871 26-477)
[2] = target: GLP-1 receptor (GLP-1R), primary cAMP assay (human, UniProt P43220 24-463)
[3] = target: T1, glucose-dependent insulinotropic …
glucagon receptor (GCGR) = glucagon receptor (GCGR) (human, UniProt P47871 26-477)
GLP-1 receptor (GLP-1R) = GLP-1 receptor (GLP-1R) (human, UniProt P43220 24-463)
[4] = target: T2, glucose-dependent insulinotropic …

glucagon receptor (GCGR), primary cAMP assay, sequence (P47871 26-477): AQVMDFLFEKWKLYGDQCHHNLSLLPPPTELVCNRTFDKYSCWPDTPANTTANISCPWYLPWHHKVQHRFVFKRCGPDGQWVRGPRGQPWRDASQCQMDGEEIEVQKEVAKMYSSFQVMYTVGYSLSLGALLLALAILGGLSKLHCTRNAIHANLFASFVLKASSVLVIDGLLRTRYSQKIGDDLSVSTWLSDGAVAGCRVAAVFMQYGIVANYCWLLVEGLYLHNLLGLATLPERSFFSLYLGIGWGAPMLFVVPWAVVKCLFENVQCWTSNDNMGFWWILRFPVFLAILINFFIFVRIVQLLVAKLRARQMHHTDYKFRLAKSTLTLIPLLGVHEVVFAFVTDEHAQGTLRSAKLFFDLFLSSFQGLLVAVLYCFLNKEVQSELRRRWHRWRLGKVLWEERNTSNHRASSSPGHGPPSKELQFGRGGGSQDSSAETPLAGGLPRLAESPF
glucagon receptor (GCGR), sequence (P47871 26-477): as above

Binder | Primary assay EC50 (cAMP), n1 [1] | Primary assay EC50 (cAMP), n2 [1] | Primary assay EC50 (cAMP) Mean [2] | Primary assay EC50 (cAMP), n1 [2] | Primary assay EC50 (cAMP), n2 [2] | Primary assay EC50 (cAMP), n1 [3] | Primary assay EC50 (cAMP), n2 [3] | Primary assay EC50 (cAMP), Gluc-R, first run (glucagon receptor (GCGR)) | Primary assay EC50 (cAMP), Gluc-R, second run (glucagon receptor (GCGR)) | Primary assay EC50 (cAMP), GLP-1R n1 (GLP-1 receptor (GLP-1R)) | Primary assay EC50 (cAMP), GLP-1R n2 (GLP-1 receptor (GLP-1R)) | Primary assay EC50 (cAMP), Mean pM GLP-1R (GLP-1 receptor (GLP-1R)) | Primary assay EC50 (cAMP), GIP-R, first run [4] | Primary assay EC50 (cAMP), GIP-R, second run [4]
H[Aib]EGS[αMeF]TSDV[αMeS]SYK([PEG2′-PEG2′-γGlu-Palmitoyl])EGEAA[αMeK]EFIAK([PEG2′-PEG2′-γGlu-Palmitoyl])VVEGG-NH2 [SEQ ID NO: 272] | 21.9 nM | 21.9 nM | 0.335 nM | 0.339 nM | 0.331 nM | 21.9 nM | 21.9 nM |  |  |  |  |  |  | 
H[Aib]EGTFTSDVSK([PEG2′-PEG2′-γGlu-Palmitoyl])FLEGEAAEEFIK([PEG2′-PEG2′-γGlu-Palmitoyl])FVVEGG-NH2 [SEQ ID NO: 245] | 21.6 nM | 21.6 nM | 11.2 nM | 12.3 nM | 10.2 nM | 21.6 nM | 21.6 nM |  |  |  |  |  |  | 
H[Aib]EGS[αMeF]TSDK([PEG2′-PEG2′-γGlu-Lauroyl])SSYLEGEAA[αMeK]EFIAWK([PEG2′-PEG2′-γGlu-Lauroyl])VEGG-NH2 [SEQ ID NO: 258] | 22.3 nM | 22.3 nM | 0.0923 nM | 0.0596 nM | 0.125 nM | 22.3 nM | 22.3 nM |  |  |  |  |  |  | 
H[Aib]EGS[αMeF]TSDV[αMeS]SK([PEG2′-PEG2′-γGlu-Palmitoyl])LEGEAA[αMeK]EFIAK([PEG2′-PEG2′-γGlu-Palmitoyl])VVEGG-NH2 [SEQ ID NO: 266] | 22.2 nM | 22.2 nM | 0.479 nM | 0.4 nM | 0.557 nM | 22.2 nM | 22.2 nM |  |  |  |  |  |  | 
H[Aib]EGS[αMeF]TSDV[αMeS]SYK([PEG2′-PEG2′-γGlu-Palmitoyl])EGEAA[αMeK]EFIAWK([PEG2′-PEG2′-γGlu-Palmitoyl])VEGG-NH2 [SEQ ID NO: 273] | 21.5 nM | 21.5 nM | 0.762 nM | 0.741 nM | 0.783 nM | 21.5 nM | 21.5 nM |  |  |  |  |  |  | 
H[Aib]EGS[αMeF]TSDV[αMeS]S[αMeF]LEGEAA[αMeK]E[αMeF]IA[αMeF]VVK([PEG2′-PEG2′-PEG2′-Stearoyl])GG-NH2 [SEQ ID NO 199] |  |  |  |  |  |  |  | 25 nM | 25 nM | 0.029 nM | 0.0075 nM | 18.3 pM | 25 nM | 25 nM
H[Aib]EGS[αMeF]TSDVSK([PEG2′-PEG2′-γGlu-Palmitoyl])YLEGEAA[αMeK]EFIAWK([PEG2′-PEG2′-γGlu-Palmitoyl])VEGG-NH2 [SEQ ID NO: 255] | 21.5 nM | 21.5 nM | 0.463 nM | 0.532 nM | 0.393 nM | 21.5 nM | 21.5 nM |  |  |  |  |  |  | 
H[Aib]EGS[αMeF]TSDK([PEG2′-PEG2′-γGlu-Palmitoyl])SSYLEGEAA[αMeK]EFIAK([PEG2′-PEG2′-γGlu-Palmitoyl])VVEGG-NH2 [SEQ ID NO: 260] | 21.9 nM | 21.9 nM | 0.389 nM | 0.334 nM | 0.443 nM | 21.9 nM | 21.9 nM |  |  |  |  |  |  | 
H[Aib]EGTFTSDVSK([PEG2′-PEG2′-γGlu-Palmitoyl])YLEGEAAEEFIK([PEG2′-PEG2′-γGlu-Palmitoyl])FVVEGG-NH2 [SEQ ID NO: 244] | 21.6 nM | 21.6 nM | 12.3 nM | 7.77 nM | 16.9 nM | 21.6 nM | 21.6 nM |  |  |  |  |  |  | 
H[Aib]EGTFTSDVSK([PEG2′-PEG2′-γGlu-Palmitoyl])FLEGEAAEEFIK([PEG2′-PEG2′-γGlu-Palmitoyl])WVVEGG-NH2 [SEQ ID NO: 243] | 21.5 nM | 21.5 nM | 3.21 nM | 2.93 nM | 3.48 nM | 21.5 nM | 21.5 nM |  |  |  |  |  |  | 
H[Aib]EGS[αMeF]TSDK([PEG2′-PEG2′-γGlu-Palmitoyl])SSYLEGEAA[αMeK]EFIK([PEG2′-PEG2′-γGlu-Palmitoyl])WVVEGG-NH2 [SEQ ID NO: 259] | 21.4 nM | 21.4 nM | 0.313 nM | 0.339 nM | 0.287 nM | 21.4 nM | 21.4 nM |  |  |  |  |  |  | 
H[Aib]EGS[αMeF]TSDV[αMeS]SK([PEG2′-PEG2′-γGlu-Palmitoyl])LEGEAA[αMeK]EFIAWK([PEG2′-PEG2′-γGlu-Palmitoyl])VEGG-NH2 [SEQ ID NO: 267] | 21.7 nM | 21.7 nM | 0.569 nM | 0.628 nM | 0.51 nM | 21.7 nM | 21.7 nM |  |  |  |  |  |  | 
H[Aib]EGS[αMeF]TSDV[αMeS]SYK([PEG2′-PEG2′-γGlu-Palmitoyl])EGEAA[αMeK]EFIK([PEG2′-PEG2′-γGlu-Palmitoyl])WVVEGG-NH2 [SEQ ID NO: 271] | 21.4 nM | 21.4 nM | 0.821 nM | 0.891 nM | 0.75 nM | 21.4 nM | 21.4 nM |  |  |  |  |  |  | 
H[Aib]EGS[αMeF]TSDK([PEG2′-PEG2′-γGlu-Palmitoyl])SSYLEGEAA[αMeK]EFIAWK([PEG2′-PEG2′-γGlu-Palmitoyl])VEGG-NH2 [SEQ ID NO: 261] | 23 nM | 23 nM | 0.418 nM | 0.414 nM | 0.422 nM | 23 nM | 23 nM |  |  |  |  |  |  | 
H[Aib]EGS[αMeF]TSDVSK([PEG2′-PEG2′-γGlu-Palmitoyl])YLEGEAA[αMeK]EFIAK([PEG2′-PEG2′-γGlu-Palmitoyl])VVEGG-NH2 [SEQ ID NO: 254] | 21.9 nM | 21.9 nM | 0.205 nM | 0.223 nM | 0.186 nM | 21.9 nM | 21.9 nM |  |  |  |  |  |  | 
H[Aib]EGTFTSDVSK([PEG2′-PEG2′-γGlu-Palmitoyl])YLEGEAAEEFIK([PEG2′-PEG2′-γGlu-Palmitoyl])WVVEGG-NH2 [SEQ ID NO: 242] | 21.4 nM | 21.4 nM | 3.85 nM | 3.58 nM | 4.11 nM | 21.4 nM | 21.4 nM |  |  |  |  |  |  | 
H[Aib]EGS[αMeF]TSDV[αMeS]S[αMeF]LEGEAA[αMeK]E[αMeF]IA[αMeF]VVK([PEG2′-PEG2′-Stearoyl])GG-NH2 [SEQ ID NO 198] |  |  |  |  |  |  |  | 26 nM | 26 nM | 0.041 nM | 0.015 nM | 27.9 pM | 26 nM | 26 nM
